Data from paper PMC10408046, “Specific detection of tau seeding activity in Alzheimer’s disease using rationally designed biosensor cells” (Molecular Neurodegeneration, 2023).

Assays:
[1] = biological target: pseudoacetylated tau (244:378) P301L 3xKQ probe with (EAAAK)3 linker to mTurquoise2 or mNeonGreen (UniProt P10636)
[2] = biological target: the molecule itself; assay: FRET or BRET; FRET between the two differently labelled copies of the probe, read by flow cytometry; HEK293T transiently transfected, exposed 24 h to serial dilutions of human AD brain extract with Lipofectamine 2000 (1% vol/vol) in Opti-MEM

Chain of seeding-competent tau from human Alzheimer's disease brain (P10636 whole entry): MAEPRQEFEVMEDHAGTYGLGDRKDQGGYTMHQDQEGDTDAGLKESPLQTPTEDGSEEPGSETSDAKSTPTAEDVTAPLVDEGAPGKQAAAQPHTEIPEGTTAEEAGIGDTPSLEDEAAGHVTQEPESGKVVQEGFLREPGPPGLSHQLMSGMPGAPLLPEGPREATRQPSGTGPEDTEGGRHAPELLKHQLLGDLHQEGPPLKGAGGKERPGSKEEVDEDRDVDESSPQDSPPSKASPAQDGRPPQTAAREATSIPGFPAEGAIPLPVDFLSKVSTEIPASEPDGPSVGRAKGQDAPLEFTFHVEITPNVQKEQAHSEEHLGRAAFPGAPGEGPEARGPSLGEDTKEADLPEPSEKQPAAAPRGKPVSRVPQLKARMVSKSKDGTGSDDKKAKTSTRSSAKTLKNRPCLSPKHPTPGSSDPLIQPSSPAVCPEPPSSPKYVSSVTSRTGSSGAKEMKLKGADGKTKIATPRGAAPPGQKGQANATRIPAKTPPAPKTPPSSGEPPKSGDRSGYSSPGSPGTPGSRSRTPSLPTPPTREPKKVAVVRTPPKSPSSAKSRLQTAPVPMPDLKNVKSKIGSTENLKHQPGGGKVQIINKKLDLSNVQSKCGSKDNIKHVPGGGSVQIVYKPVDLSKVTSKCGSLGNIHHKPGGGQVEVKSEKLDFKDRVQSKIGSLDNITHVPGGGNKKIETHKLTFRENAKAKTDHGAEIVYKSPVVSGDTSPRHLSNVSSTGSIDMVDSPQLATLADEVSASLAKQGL

Row | seeding signal (FRET, flow cytometry) in the novel biosensor HEK293T clone 18: tau-immunodepleted AD brain material against the starting material [1] | Molecule | fold increase in FRET-positive cells against the probe without 3xKQ [2]
1 | 82.3% | seeding-competent tau from human Alzheimer's disease brain (from UniProt P10636 1-758) (natural protein) | 
2 |  | pseudoacetylated tau (244:378) P301L 3xKQ probe with (EAAAK)3 linker to mTurquoise2 or mNeonGreen (domain or fragment, microtubule associated protein tau, amino acids 244 to 378, P301L and lysines 311, 317 and 321 changed to glutamines to mimic acetylation (3xKQ); Both labelled copies come from one construct with a T2A self-cleaving peptide; a small amount of uncleaved polypeptide was seen by western blot; also called 3xKQ mutant; pseudoacetylated (EAAAK)3 probe; source: HEK293T, transiently transfected, in cells) QTAPVPMPDLKNVKSKIGSTENLKHQPGGGKVQIINKKLDLSNVQSKCGSKDNIKHVLGGGSVQIVYQPVDLSQVTSQCGSLGNIHHKPGGGQVEVKSEKLDFKDRVQSKIGSLDNITHVPGGGNKKIETHKLTFEAAAKEAAAKEAAAK | ~3 fold
